Experiment: protease stability score; higher = more stable; yeast display proteolysis, trypsin and chymotrypsin;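 also: relative to predicted unfolded state with 0 unfolded-like and 1 meaning tenfold more protease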
In the case of “SEEERLTRELVEILLELFKTGDEDKWKEMVDPNVRVELIQGEKFIIDHGWESFFRFLLELGVDHREDKRKDAVNGRVHLTGQIDINGRRIDIHLDIDVVNGKVKSIRVELR”, the protease stability score is reported as 0.933. Sequence “DETKEDTNRWIEHELRALKTGNWKEQFKNLDPNVRMHLHVGDKNKDLHGREKVTTELRRLFEEFGIKHIHLTNFEVQGDKIHLIMHIEVDGRHIELHLIVTKIDGKWHMESIEMHFR” has a protease stability score of 0.866. “TEEEEENMDFLHKWLERTRTGDEHEIKKLADPDVRLRVGNKEIHGRDLFARWAKEIRITHLDEKRFHIYNGKVDFDGINHVTVNGVDETRKVIFHLVKVDGVWRFKEVDIR” gave a protease stability score of 0.98. “HEDEHELRHAVELFIWLIHTGDWHTELRLADPDVRHEVNGVENHGRELMLEDLQRIKNIRFHVRRVEIRVYGDKADLHIHGRKIVDGRHKELEIHVHIRKVNGKWLLHEVEVNIR” showed a protease stability score of 1.59. In the case of “DEHKEQLRRIFELMLHLFLTGDWKQLWELADPHARFRIDGRDIHGRDNFAEEVKRIVDEWRIHIDPRHIDVFDGVNHVRTDLFFEYDGRKLRHHTRVINIVVDGRLKEVEFRIE”, the protease stability score is reported as 1.36. “SEIDKESEEVARRLLHMEYTGDEEKMIKLLDPHVRLDINGQLFVGREEAERALRQYWHRVDHIHSIEIHDYKTQGDWFHLDIRVDGEIDGQRRDFRVIVHTRIVNGKVKEMHLKFH” showed a protease stability score of 1.65. In the case of “SEEERFVEEMLRHFLTNFLTGDWDKVAKLADPDTRSLIGDKHSHGRERVIDVLTYVVEEWRWKEFRVHRTTSIGEKAHSDTETDGNYNGVDVRSRSYIHFEVVNGRMSQIHLIFV”, the protease stability score is reported as 0.694. With “DEDEKYLKEFLRILIEARRTGDEQLLERLMDPRVKLDNENHFSHGREDAVRHLNEHSKEARLESVEVHDVRVFNGVILWDVRIHGDIDGRRDTFNVIIIILKVNGRWRLREFIFT” the protease stability score was 1.39. Sequence “DEDEKILEKYIRIETRALKTGNEEERENLADPNTKIDVNGVKIHGMEDWSRKLLKWLRDHGATNDLKFERIKFQGEKVILDGRLHVHYNGVDLEIETIIYFTKYNGKWILKSMEVI” has a protease stability score of 0.229. In the case of “SELSEDLDMYIKIFLRHTETGDEESVRDFADPHAKLEIGDKTFHGRETFLDWFLDLRDRIPNITVRIHEVRIIGDKIHIDLEIIIGEKRTRIHLKIFKVDGVWVLKSLRIN”, the protease stability score is reported as 1.58. For “DEEEETLRWVKELLKHLSKTGDFEKIVNYMDPDVRLNVDGVELVGMHHLERLAKEIRFKIHDLHPRRERIFDGKIQMDVEIDRIIHYGDKTTRERTTIIIIFEKVNGRWLIHTIHVH”, the protease stability score was 1.17. “SEEEENSRLLVELYFRWLVTGNEEVHNKYLDPNMRLEIRIGDKTIETHGREEILRAMREWRIRHVELKDRHVQGDKAHIEGTIIIEFDGRDIERHLNIIIVVINGRIHEIQLHVR” gave a protease stability score of 2.79. With “SEDEEEKHKFAEIFWHAHLTGDFDTLKRLVDPNVRIRIGDKDLHGREHLLEELRKIKNLTIEERHVDIQGEWMRMEVVHYVNGVHIDTTIHIDVVNGRIRRIVFNIV” the protease stability score was 2.47. “SDLEERSKSALHHLEEVLRTGDEDESRLMLDPNVRSVYDGREFHGRELVTELLSAFLKHLRIRDVKVERVEMNENEVRWDMKIDGTVGDKRYETHVHIIVVKVNGRWFLKEVRFG” gave a protease stability score of 1.39. “DEERKFLKKMHEILDKSERTGNEEDIMRLVDPEVRLTVGDKELHGWSAMHEYFKRWIDKFPGVRVHFELNDITIVDGRILNIVHTKFEFDGREFQLTATIFAHKYDGRWTLTSMRYE” gave a protease stability score of 1.09. Work on “DEHEELLRRLADEWFKSLLTGDEDRLLELADPNMRIRLLINGRDEKIHGWEELVRWFREIRFRSMDIDSFTLVNGKIQIRFKYRGRVNGQTHETRSEFLLIVIDGKVTHVEVRLE” yielded a protease stability score of 2.46. Work on “SEDEEYMHNVARLLMESLLTGDEKTLKELFDPNTRVDINGKDIHGREDILTDWKRREHEWRVEDIKIEHEEVQGNKAVLHGKVTGDINGVKTHIHRDVHWEVINGKLKYVKFEHR” yielded a protease stability score of 1.12. In the case of “DERREIMEEWARDVIEWLETGDFEAIERNLDPNVRHDFNGKEFHGREQVIKSFHDILKRIKNIRIETRHIEVVDGVTHWDGDVNVNGVRTHVDINIEVINGVFHDFYIKFK”, the protease stability score is reported as 1.19. Sequence “NEDEENMKKLLEDFLESLLTGDFDKLTRLADPHARIVQGDKELHGRDEIHEFWKRTMEHIRITHSYVREIDIINGRLHTDIHWDLQVGDKRYSHRVELILLKIDGKWVLHEVEFR” has a protease stability score of 1.27. “TELEESAKRAVKHVVDLILTGDWELFEEMFDPHTRILVGDKHMHGREMASEHLRFWYEHLGVKHIEIRRIDVQGDKVVSDVETDIDGRHIRVNLVIHKVDGKWIIHSIHLD” gave a protease stability score of 1.59. Work on “DEEEEMSKEATEWFKRVSKTGDEKDLVEFLDPNVLLEIGDKRFHGREVASHWMTRMFHEIRIRHIEEKEFRIYNGRATLHEHLDIEFDGRTSKIHVTVVYIKVNGRWFMESLHIR” yielded a protease stability score of 0.808. “TEDEELSHEIFEIWERVRRTGDEHTLERLADPNMRVHIDGQDYHGREMLFEFLNRFKGLKSDIHDMRIEIVGDYIILNIKVHITVNGREIHLTIHLHSRKFNGKWHLKELEIRKI” gave a protease stability score of 1.32. “DDQEKLVRKAWELLVRHLHTGDEEHLDKLIDPNTRMTYNGRETHGMELFSHLMTHLRVKDMDLKEVRIVDGRAILDGHLHGEIDGRETTTRTTYIILKIDGRWFVKSVRFE” showed a protease stability score of 1.15. “SEEERLARVFVELLLEISKTGDERMWKWLADPHYRLIIDGVRFHGRETLEREFKRFDYIHDVRLNDMIINGEHLILDVRVHGQQGDKEINIRTFLVVLKVDGVWVLKSVHIH” showed a protease stability score of 1.49. Sequence “SEDEHYVRHAIKLWMDSHLTGDEHTLTQLLDPNVRTDFNGREFHGREEASKWTKHLLERMGIKVSDVHLRRLDVQGDKAISHTELIIHFNGVDLSKEVHIDIMKVDGQWMIRDLTII” has a protease stability score of 0.613.

— the NTF2 design screens of Basanta et al. (2020)
